Source: patent US20130005646A1 (Novo Nordisk, published 2013)
Starred links: 1 amine or outer side, 2 acyl side, 3 side chain; linkers in the order of their positions; H or OH if unused. Positions of bridges follow the written chain, without caps; N, C: chain ends. *: point of attachment. C20 diacid = O=C(O)CCCCCCCCCCCCCCCCCCC(=O)*; γGlu = O=C(O)[C@H](CCC(=O)[*:2])N[*:1]

T1: human amylin 3(a) receptor (human calcitonin receptor + RAMP-3) (human, UniProt P30988 25-474; O60896 24-148)
T1 sequence (looked up) 1: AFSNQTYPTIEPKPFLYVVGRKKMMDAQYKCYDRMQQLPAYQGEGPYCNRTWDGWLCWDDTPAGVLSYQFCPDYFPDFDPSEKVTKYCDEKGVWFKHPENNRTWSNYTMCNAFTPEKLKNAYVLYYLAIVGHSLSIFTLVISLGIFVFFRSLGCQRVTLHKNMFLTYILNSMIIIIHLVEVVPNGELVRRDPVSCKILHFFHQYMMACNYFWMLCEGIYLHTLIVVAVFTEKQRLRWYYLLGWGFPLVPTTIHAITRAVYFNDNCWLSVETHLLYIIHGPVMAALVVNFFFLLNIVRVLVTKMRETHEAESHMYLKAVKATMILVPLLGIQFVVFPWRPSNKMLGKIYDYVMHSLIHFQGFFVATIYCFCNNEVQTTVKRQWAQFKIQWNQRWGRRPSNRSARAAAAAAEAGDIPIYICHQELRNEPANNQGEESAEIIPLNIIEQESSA
T1 sequence (looked up) 2: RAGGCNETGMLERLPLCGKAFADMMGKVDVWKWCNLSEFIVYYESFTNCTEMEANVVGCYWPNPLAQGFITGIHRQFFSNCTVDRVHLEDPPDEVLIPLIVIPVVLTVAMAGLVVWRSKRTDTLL

T2: human calcitonin (a) receptor (human, UniProt P30988 25-474)
T2 sequence (looked up): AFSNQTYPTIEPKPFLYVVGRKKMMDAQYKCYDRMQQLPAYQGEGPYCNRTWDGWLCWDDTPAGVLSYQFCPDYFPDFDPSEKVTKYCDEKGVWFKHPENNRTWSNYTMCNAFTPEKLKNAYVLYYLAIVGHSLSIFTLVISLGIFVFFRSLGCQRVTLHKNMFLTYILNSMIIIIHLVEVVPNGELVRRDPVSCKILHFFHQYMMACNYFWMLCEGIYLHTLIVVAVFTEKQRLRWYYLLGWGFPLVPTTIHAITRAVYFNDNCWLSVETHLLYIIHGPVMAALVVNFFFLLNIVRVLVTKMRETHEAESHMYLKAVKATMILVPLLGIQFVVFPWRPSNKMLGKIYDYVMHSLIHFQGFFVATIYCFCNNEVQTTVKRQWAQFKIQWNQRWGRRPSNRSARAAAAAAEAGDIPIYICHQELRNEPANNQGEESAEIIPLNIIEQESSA

T3: rat amylin 3(a) receptor (rat calcitonin(a) receptor + rat RAMP3) (rat, UniProt P32214 25-516; Q9JJ73 23-147)
T3 sequence (looked up) 1: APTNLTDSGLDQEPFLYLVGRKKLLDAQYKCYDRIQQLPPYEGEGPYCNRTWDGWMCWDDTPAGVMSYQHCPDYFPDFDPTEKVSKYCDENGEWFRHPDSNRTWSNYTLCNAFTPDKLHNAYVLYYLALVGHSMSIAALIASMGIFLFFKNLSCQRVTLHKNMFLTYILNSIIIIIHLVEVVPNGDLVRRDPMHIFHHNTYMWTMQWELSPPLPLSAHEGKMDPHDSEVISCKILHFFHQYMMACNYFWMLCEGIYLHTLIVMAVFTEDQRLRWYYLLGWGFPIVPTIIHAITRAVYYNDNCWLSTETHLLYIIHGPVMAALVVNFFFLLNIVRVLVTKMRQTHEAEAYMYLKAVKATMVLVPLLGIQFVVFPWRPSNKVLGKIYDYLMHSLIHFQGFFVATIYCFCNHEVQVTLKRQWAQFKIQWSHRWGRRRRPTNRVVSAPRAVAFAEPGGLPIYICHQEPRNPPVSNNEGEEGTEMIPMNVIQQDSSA
T3 sequence (looked up) 2: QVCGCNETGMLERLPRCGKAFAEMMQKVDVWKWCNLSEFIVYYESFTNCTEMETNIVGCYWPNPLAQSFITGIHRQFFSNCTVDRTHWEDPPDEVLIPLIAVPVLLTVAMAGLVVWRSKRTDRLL

T4: rat calcitonin (a) receptor (rat, UniProt P32214 25-516)
T4 sequence (looked up): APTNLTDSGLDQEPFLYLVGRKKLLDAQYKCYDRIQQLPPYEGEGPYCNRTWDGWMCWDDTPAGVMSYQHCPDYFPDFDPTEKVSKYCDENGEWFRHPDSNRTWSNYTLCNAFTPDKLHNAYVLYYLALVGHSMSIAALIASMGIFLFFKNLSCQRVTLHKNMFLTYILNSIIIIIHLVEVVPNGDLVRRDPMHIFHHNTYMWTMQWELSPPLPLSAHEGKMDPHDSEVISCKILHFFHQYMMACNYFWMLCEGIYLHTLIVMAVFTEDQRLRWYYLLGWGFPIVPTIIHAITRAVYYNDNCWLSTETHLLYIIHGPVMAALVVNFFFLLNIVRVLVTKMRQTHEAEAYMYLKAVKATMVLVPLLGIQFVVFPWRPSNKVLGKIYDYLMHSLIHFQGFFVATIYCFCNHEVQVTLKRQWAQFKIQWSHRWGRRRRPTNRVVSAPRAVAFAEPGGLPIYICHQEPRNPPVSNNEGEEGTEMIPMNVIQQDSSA


Columns and labels:
Test in all cases: cell-based or functional assay
[1] = target: T1, human amylin 3(a) receptor (human …)
[2] = target: T2, human calcitonin (a) receptor
[3] = target: T3, rat amylin 3(a) receptor (rat …)
[4] = target: T4, rat calcitonin (a) receptor

Binder	Amylin receptor human EC50 [1]	CTa receptor human EC50 [2]	Amylin receptor rat EC50 [3]	CTa receptor rat EC50 [4]
{C20 diacid-γGlu}-HHHCNTATCATQRLAEFLHHSSNNFGAPLSSTNVGSNTY-NH2 (disulfide 4-9; SMILES CC(C)C[C@H](NC(=O)[C@H](CCCNC(=N)N)NC(=O)[C@H](CCC(N)=O)NC(=O)[C@@H](NC(=O)[C@H](C)NC(=O)[C@@H]1CSSC[C@H](NC(=O)[C@H](Cc2c[nH]cn2)NC(=O)[C@H](Cc2c[nH]cn2)NC(=O)[C@H](Cc2c[nH]cn2)NC(=O)CC[C@H](NC(=O)CCCCCCCCCCCCCCCCCCC(=O)O)C(=O)O)C(=O)N[C@@H](CC(N)=O)C(=O)N[C@@H]([C@@H](C)O)C(=O)N[C@@H](C)C(=O)N[C@@H]([C@@H](C)O)C(=O)N1)[C@@H](C)O)C(=O)N[C@@H](C)C(=O)N[C@@H](CCC(=O)O)C(=O)N[C@@H](Cc1ccccc1)C(=O)N[C@@H](CC(C)C)C(=O)N[C@@H](Cc1c[nH]cn1)C(=O)N[C@@H](Cc1c[nH]cn1)C(=O)N[C@@H](CO)C(=O)N[C@@H](CO)C(=O)N[C@@H](CC(N)=O)C(=O)N[C@@H](CC(N)=O)C(=O)N[C@@H](Cc1ccccc1)C(=O)NCC(=O)N[C@@H](C)C(=O)N1CCC[C@H]1C(=O)N[C@@H](CC(C)C)C(=O)N[C@@H](CO)C(=O)N[C@@H](CO)C(=O)N[C@H](C(=O)N[C@@H](CC(N)=O)C(=O)N[C@H](C(=O)NCC(=O)N[C@@H](CO)C(=O)N[C@@H](CC(N)=O)C(=O)N[C@H](C(=O)N[C@@H](Cc1ccc(O)cc1)C(N)=O)[C@@H](C)O)C(C)C)[C@@H](C)O)	0.105 nM	0.31 nM	0.132 nM	0.824 nM
{C20 diacid-γGlu}-HCNTATCATQRLAEFLHHSSNNFGPILPPTNVGSNTY-NH2 (disulfide 2-7; not fully specified; printed as N-alpha-[(S)-4-Carboxy-4-(19-carboxynonadecanoylamino)butyryl]-[His1,Glu14,His17]-pramlintide) [N-alpha-[(S)-4-Carboxy-4-(19-carboxynonadecanoylamino)butyryl]-[His1,Glu14,His17]-pramlintide]	0.131 nM	0.126 nM	0.187 nM	1.17 nM
{C20 diacid-γGlu}-HHHCRTATCATQRLAEFLHHSSNNFGPILPPTNVGSNTY-NH2 (disulfide 4-9; SMILES CC[C@H](C)[C@H](NC(=O)[C@@H]1CCCN1C(=O)CNC(=O)[C@H](Cc1ccccc1)NC(=O)[C@H](CC(N)=O)NC(=O)[C@H](CC(N)=O)NC(=O)[C@H](CO)NC(=O)[C@H](CO)NC(=O)[C@H](Cc1c[nH]cn1)NC(=O)[C@H](Cc1c[nH]cn1)NC(=O)[C@H](CC(C)C)NC(=O)[C@H](Cc1ccccc1)NC(=O)[C@H](CCC(=O)O)NC(=O)[C@H](C)NC(=O)[C@H](CC(C)C)NC(=O)[C@H](CCCNC(=N)N)NC(=O)[C@H](CCC(N)=O)NC(=O)[C@@H](NC(=O)[C@H](C)NC(=O)[C@@H]1CSSC[C@H](NC(=O)[C@H](Cc2c[nH]cn2)NC(=O)[C@H](Cc2c[nH]cn2)NC(=O)[C@H](Cc2c[nH]cn2)NC(=O)CC[C@H](NC(=O)CCCCCCCCCCCCCCCCCCC(=O)O)C(=O)O)C(=O)N[C@@H](CCCNC(=N)N)C(=O)N[C@@H]([C@@H](C)O)C(=O)N[C@@H](C)C(=O)N[C@@H]([C@@H](C)O)C(=O)N1)[C@@H](C)O)C(=O)N[C@@H](CC(C)C)C(=O)N1CCC[C@H]1C(=O)N1CCC[C@H]1C(=O)N[C@H](C(=O)N[C@@H](CC(N)=O)C(=O)N[C@H](C(=O)NCC(=O)N[C@@H](CO)C(=O)N[C@@H](CC(N)=O)C(=O)N[C@H](C(=O)N[C@@H](Cc1ccc(O)cc1)C(N)=O)[C@@H](C)O)C(C)C)[C@@H](C)O)	0.0985 nM	0.157 nM	0.261 nM	1.29 nM
{C20 diacid-γGlu}-HHHCNTATCATQRLAEFLHHSSNNFGPILPPTNVGSRTY-NH2 (disulfide 4-9; SMILES CC[C@H](C)[C@H](NC(=O)[C@@H]1CCCN1C(=O)CNC(=O)[C@H](Cc1ccccc1)NC(=O)[C@H](CC(N)=O)NC(=O)[C@H](CC(N)=O)NC(=O)[C@H](CO)NC(=O)[C@H](CO)NC(=O)[C@H](Cc1c[nH]cn1)NC(=O)[C@H](Cc1c[nH]cn1)NC(=O)[C@H](CC(C)C)NC(=O)[C@H](Cc1ccccc1)NC(=O)[C@H](CCC(=O)O)NC(=O)[C@H](C)NC(=O)[C@H](CC(C)C)NC(=O)[C@H](CCCNC(=N)N)NC(=O)[C@H](CCC(N)=O)NC(=O)[C@@H](NC(=O)[C@H](C)NC(=O)[C@@H]1CSSC[C@H](NC(=O)[C@H](Cc2c[nH]cn2)NC(=O)[C@H](Cc2c[nH]cn2)NC(=O)[C@H](Cc2c[nH]cn2)NC(=O)CC[C@H](NC(=O)CCCCCCCCCCCCCCCCCCC(=O)O)C(=O)O)C(=O)N[C@@H](CC(N)=O)C(=O)N[C@@H]([C@@H](C)O)C(=O)N[C@@H](C)C(=O)N[C@@H]([C@@H](C)O)C(=O)N1)[C@@H](C)O)C(=O)N[C@@H](CC(C)C)C(=O)N1CCC[C@H]1C(=O)N1CCC[C@H]1C(=O)N[C@H](C(=O)N[C@@H](CC(N)=O)C(=O)N[C@H](C(=O)NCC(=O)N[C@@H](CO)C(=O)N[C@@H](CCCNC(=N)N)C(=O)N[C@H](C(=O)N[C@@H](Cc1ccc(O)cc1)C(N)=O)[C@@H](C)O)C(C)C)[C@@H](C)O)	0.192 nM	0.429 nM	0.133 nM	1.34 nM
{C20 diacid-γGlu}-ECGTATCATQRLAEFLVRSSSSFGAPLSSTEVGSRTY-NH2 (disulfide 2-7; SMILES CC(C)C[C@H](NC(=O)[C@H](CCCNC(=N)N)NC(=O)[C@H](CCC(N)=O)NC(=O)[C@@H](NC(=O)[C@H](C)NC(=O)[C@@H]1CSSC[C@H](NC(=O)[C@H](CCC(=O)O)NC(=O)CC[C@H](NC(=O)CCCCCCCCCCCCCCCCCCC(=O)O)C(=O)O)C(=O)NCC(=O)N[C@@H]([C@@H](C)O)C(=O)N[C@@H](C)C(=O)N[C@@H]([C@@H](C)O)C(=O)N1)[C@@H](C)O)C(=O)N[C@@H](C)C(=O)N[C@@H](CCC(=O)O)C(=O)N[C@@H](Cc1ccccc1)C(=O)N[C@@H](CC(C)C)C(=O)N[C@H](C(=O)N[C@@H](CCCNC(=N)N)C(=O)N[C@@H](CO)C(=O)N[C@@H](CO)C(=O)N[C@@H](CO)C(=O)N[C@@H](CO)C(=O)N[C@@H](Cc1ccccc1)C(=O)NCC(=O)N[C@@H](C)C(=O)N1CCC[C@H]1C(=O)N[C@@H](CC(C)C)C(=O)N[C@@H](CO)C(=O)N[C@@H](CO)C(=O)N[C@H](C(=O)N[C@@H](CCC(=O)O)C(=O)N[C@H](C(=O)NCC(=O)N[C@@H](CO)C(=O)N[C@@H](CCCNC(=N)N)C(=O)N[C@H](C(=O)N[C@@H](Cc1ccc(O)cc1)C(N)=O)[C@@H](C)O)C(C)C)[C@@H](C)O)C(C)C)	1.44 nM	0.672 nM	4.51 nM	1.75 nM
